One substance from publication PMC12774657 can be followed below.

Data set [1] has as its target HIF1a bHLH-PASA-PASB;ARNT bHLH-PASA-PASB (;) (UniProt Q16665+P27540). In words: EMSA. Conditions: EMSA: 10 nM probe, 20 mM Tris pH 8.0, 250 mM NaCl, 16 ug/ml salmon sperm ssDNA, 30 ug/ml BSA, 1.25 mM MgCl2, 6% glycerol, 10 mM DTT, room temperature 30 min ….
Data set [2] deals with HIF2a bHLH-PASA-PASB;ARNT bHLH-PASA-PASB (;) (UniProt Q99814+P27540). Nature of the data set: EMSA. Particulars: EMSA: 10 nM probe, 20 mM Tris pH 8.0, 250 mM NaCl, 16 ug/ml salmon sperm ssDNA, 30 ug/ml BSA, 1.25 mM MgCl2, 6% glycerol, 10 mM DTT, room temperature 30 min ….

TACGTG-containing EMSA probe displayed a binding signal (fold affinity vs HIF2a/ARNT) in data set [1] of 2. Also, the binding signal (reference (HIF1a/ARNT ~2 fold higher)) in data set [2] is 1.
